Reference: the supplement of paper PMC12042874
± gives the uncertainty stated by the source.

test: amyloid nucleation score (Sup35N fusion, yeast selection) (log enrichment); library NNK1; higher = more nucleation; inactive = no reads after selection
Outline: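 On medium lacking adenine and uracil, psi-negative yeast expressing peptides of 20 random codons fused to Sup35N were grown 7 days at 30°C after a 24-hour induction with 100 μM copper sulfate. Illumina sequencing of input and output plasmid inserts gave the reads, and sequences under 100 input reads were excluded. The nucleation score is the DiMSum log enrichment of output over input reads, centred on the mode score of non-aggregating sequences.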

In order of falling amyloid nucleation score:
1. NMDGSVSCVCNILSFDYGGS  8.289 ± 0.077
2. NISVHDNNLFHVWNLMVDSG  5.83 ± 0.061
3. NFNCLVTDAFYFRGWKCLDR  4.9 ± 0.12
4. NKGKIESMCSSAH  4.7 ± 0.099
5. NLFLIDMNVWRLVVGGRQDW  4.63 ± 0.073
6. NDGPNSIIYFYMIFI  4.58 ± 0.12
7. NASYVNIKYRNRGN  4.53 ± 0.082
8. NLEAIRQMQEKIMRRTWLLY  3.03 ± 0.13
9. NFYMGETDGACLCASMRDPQ  2.62 ± 0.14
10. NLICNLVDNQFPVWQLLRIW  2.3 ± 0.17
11. NFAWYNSTQFITTCRVTYSE  1.86 ± 0.17
12. NLGTSYAWHDNGLFCIHCVS  1.34 ± 0.84
13. NFRNSLRSV  1.24 ± 0.59
14. NKLEYPHNNACATCC  1.09 ± 0.84
15. NCGSVFFYGPIVGFHRLGLV  0.967 ± 0.44
16. NIQSDRVHIFNELVRFSRWK  0.829 ± 0.97
17. NDRLLMVRYILHFESNAMTW  0.794 ± 0.38
18. NDSACIRRSIGSHSFSSCSV  0.766 ± 0.84
19. NCCCEAKTWRLIDCIITIVI  0.711 ± 0.13
20. NLACGFKSWDFKRMRD  0.685 ± 0.51
21. NLEHKCVFVLHMKTLIISQP  0.664 ± 1.2
22. NFMEYYKIRVMCWANR  0.616 ± 0.29
23. NGLQMDCWPLCWRGGGARNC  0.582 ± 0.38
24. NLVFW  0.562 ± 0.69
25. NGRIQKLASNTCGLWEDLDT  0.501 ± 0.54
26. NGYFGAEDFLIVWIALRKKW  0.5 ± 0.9
27. NKSVFVLFVWINSENNVYCE  0.443 ± 0.62
28. NHLRGKCTWGRYCWSVVIRF  0.362 ± 0.83
29. NCERVTDYELIRGSSILKVV  0.311 ± 0.73
30. NCKFEKSLKPPHGPYNGNQY  0.292 ± 0.42
31. NDTLGSCLDNSLQSGSWWLR  0.276 ± 0.39
32. NLLGDSLWEPLNLVDGSTLW  0.235 ± 0.3
33. NCLDGGMFRYIKVYRSRYSS  0.209 ± 0.2
34. NEDAPFMVTSKVVSGT  0.176 ± 0.34
35. NDTNI  0.175 ± 1.1
36. NLTCSLMVCRWFPIPVL  0.171 ± 0.38
37. NGCQSIMR  0.165 ± 0.62
38. NHVSHWMLSSGKASRYHTRR  0.142 ± 0.66
39. NCFRFCRQLLTAEDDVMCLP  0.117 ± 0.81
40. NDYNWKYGFLRWCVLYEVM  0.117 ± 0.4
41. NANINFSNTMQADVL  0.116 ± 0.31
42. NEFEVCG  0.108 ± 0.25
43. NASSLVRTDCHSMRKESSMR  0.052 ± 0.4
44. NKQEQHFF  0.052 ± 0.4
45. NLVALNLSNTFPDDV  0.04 ± 0.82
46. NLGIWPLYPYFFWLGQIWGD  0.022 ± 0.77
47. NLVYTAIAPPFASFRK  0.005 ± 0.65
48. NLKIQCSS  0.004 ± 0.39
49. NLVVTTWARDIADYISAS  -0.01 ± 0.4
50. NFGLRRYSNARMGMDCGWLC  -0.011 ± 0.45
51. NIYNVRLIVSH  -0.018 ± 0.54
52. NIPQLVVFKWMLSTC  -0.047 ± 1.1
53. NFNFFRRCLGSPYNRPEWID  -0.066 ± 0.42
54. NFMYTYTVTLRRGYGEVSCA  -0.071 ± 0.6
55. NFLFCFCHYCIWKVCTVAGC  -0.073 ± 0.45
56. NHFLYLFVRYYTRLAEHVYA  -0.08 ± 0.56
57. NHTGYTWMNVR  -0.099 ± 0.26
58. NKAFGMIV  -0.103 ± 0.79
59. NGFRTSTSCVILLPFCKGQK  -0.129 ± 0.57
60. NCDLECQSLRAYGLSCKKSR  -0.22 ± 0.43
61. NLRFRRYTLVSGMQGNKIWH  -0.234 ± 0.48
62. NFIRKPFGFIY  -0.282 ± 1.7
63. NCTKSSWYGCYT  -0.287 ± 0.35
64. NLSCAE  -0.288 ± 0.71
65. NLERKEVLSREGCICANFTR  -0.345 ± 0.45
66. NKNTS  -0.45 ± 0.54
67. NFRSFYKQF  -0.451 ± 1.4
68. NGGAPSGNSGFKYSCKGWFV  -0.452 ± 0.52
69. NFPVPLRNDLKLAFMQNLNS  -0.531 ± 0.3
70. NARVILCVVFILGAMTRLGL  -0.549 ± 0.65
71. NLWSGFLRFKFSCGRIDGIL  -0.622 ± 0.41
72. NLFNYLSFD  -0.675 ± 0.49
73. NIGMVRFFLGAN  -0.71 ± 0.61
74. NMDSNAIGGGGNGGVRLQSR  -0.76 ± 0.55
75. NILFCWMGTMYPLLLSAYGR  -0.793 ± 0.48
76. NLMNWRLYDLTGLAAWDQYS  -0.841 ± 0.98
77. NFRGFLVTDPLSSS  -0.842 ± 0.42
78. NHMSGIDKGIMRLGEWLGEW  -1 ± 0.83
79. NGKWYLLVRGFLAWNKQRCP  -1.03 ± 2.7
80. NILVAIL  -1.45 ± 1.4

For NCFIKDAMVMSSRMYSGNMI, the amyloid nucleation score was “inactive”.
For NCGNMAATSFVNEIYL, the amyloid nucleation score was “inactive”.
For NCVTL, the amyloid nucleation score was “inactive”.
In the case of NFIVVMCTIMNLCYKAQPNE, the amyloid nucleation score is reported as “inactive”.
In the case of NFPLVSFFTNCSNKE, the amyloid nucleation score is reported as “inactive”.
With NIITIETGGRKVGTFMMYSI the amyloid nucleation score was “inactive”.
